The record followed here is PMC7901269 (Cell, 2021).

First the molecules themselves.
B1: mAb 88 (Fab, V domains shown)
VH: QLQLQESGPGLVKPSQTLSLTCTVSGGSISSGSYNWTWIRQPAGKGLEWIGRIYNSGSTNYNPSLKSRVTISVDTSKNQLSLKVRSVTAADTAVYYCARHCSGGTCYPKYYYGMDVWGQGTTVTVSS
VL: QSALTQPPSVSEAPRQRVTISCSGSSSNIGNNAVNWYQQFPGKAPKLLIYYDDLLPSGVSDRFSGSKSGTSASLAISGVQSEDEADYYCAAWDDSLNVVVFGGGTKLTVL
B2: mAb 150 (Fab, V domains shown)
VH: QVQLVESGGGLIQPGGSLRLSCAASGVTVSSNYMSWVRQAPGKGLEWVSIIYSGGTTYYADSVKGRFTISRDSSMNTLYLQMNSLRAEDTAVYYCARDLMVYGIDVWGQGTTVTVSS
VL: EIVMTQSPSSLSASVGDRVTITCRASQGISSYLAWYQQKPGKAPKLLIYAASTLQSGVPSRFSGSGSGTDFTLTISSLQPEDFATYYCQQLDSYPPGYTFGQGTKVDIK
notes: source: from Dejnirattisai et al., 2021; human mAbs expressed in HEK293T cells
B3: chimera 253H/165L (Fab, V domains shown)
VH: not shown
VL: DIVMTQSPGTLSLSPGERATLSCRASQSVRSSYLAWYQQKPGQAPRLLIYGASRRGTGIPDRFSGSGSGTDFTLTISRLEPEDFAVYYCQQYGSSPWTFGQGTKVEIK
notes: also called 253-165; 353/165; source: from Dejnirattisai et al., 2021; human mAbs expressed in HEK293T cells

The target of the assay is His-tagged SARS-CoV-2 RBD (native RBD) (SARS-CoV-2, Wuhan (native RBD), UniProt P0DTC2). The assay is described as follows: BLI. The settings on record: both partners purified.
As for B1, the Kd was 0.64 nM.

Molecule B2 had a Kd of 0.19 nM.

B3 displayed a Kd of 0.73 nM.
